Source: PMC6539309, “PgMYB2, a MeJA-Responsive Transcription Factor, Positively Regulates the Dammarenediol Synthase Gene Expression in Panax Ginseng”

Target: PgMYB2 (TF fusion) (Panax ginseng, UniProt A0A1Z1CH15 1-280)
Assay: EMSA; LightShift Chemiluminescent EMSA kit protocol, room temperature, 20 min, native PAGE; protein stored in 20 mM Tris-HCl pH 7.2; binding buffer not stated
Details: protein: recombinant; tags: N-terminal trigger factor (TF) + 6xHis (pCold/TF); label: biotin; blunt

Sequence of PgMYB2 (TF fusion) (A0A1Z1CH15 entry or part of it): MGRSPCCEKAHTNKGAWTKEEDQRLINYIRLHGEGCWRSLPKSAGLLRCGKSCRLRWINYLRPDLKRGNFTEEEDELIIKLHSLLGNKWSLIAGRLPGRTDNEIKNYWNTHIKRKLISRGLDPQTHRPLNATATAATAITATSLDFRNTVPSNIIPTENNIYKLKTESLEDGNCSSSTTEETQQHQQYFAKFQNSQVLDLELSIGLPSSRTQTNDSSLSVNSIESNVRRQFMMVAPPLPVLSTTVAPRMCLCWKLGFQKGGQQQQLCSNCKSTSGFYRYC

B1: MBSII probe (dsDNA)
DNA 1: GACTGGCATTGATTTAAAAGGCGGT
DNA 2: ACCGCCTTTTAAATCAATGCCAGTC
  binding result: binds
